Data taken from article PMC9549148, “Validation of the binding stoichiometry between HCN channels and their neuronal regulator TRIP8b by single molecule measurements” (Frontiers in Physiology, 2022).

B1: rabbit HCN4 carrying an internal deletion (from residues 783 to 1064) (natural protein, UniProt Q9TV66 1-1175, looked up)
chain: MDKLPPSMRKRLYSLPQQVGAKAWIMDEEEDAEEEGAGGRQDPRRRSIRLRPLPSPSPSPSAAAAAAGGAESRGAALGGAADGEGPARGAAKSSTNGDCRRFRGSLASLGSRGGGGGGGSTGGGSHGHLHDSAEERRLIAEGDASPGEDRTPPGLAAEPERPGAPAPPAASPPQVPSSCGEQRPADAAVKVEGGAAAGDQILPEAEARLGQAGFMQRQFGAMLQPGVNKFSLRMFGSQKAVEREQERVKSAGFWIIHPYSDFRFYWDLTMLLLMVGNLIIIPVGITFFKDENTTPWIVFNVVSDTFFLIDLVLNFRTGIVVEDNTDIILDPRRIKMKYLKSWFVVDFVSSIPVDYIFLIVETRIDSEVYKTARALRIVRFTKILSLLRLLRLSRLIRYIHQWEEIFHMTYDLASAVVRIVNLIGMMLLLCHWDGCLQFLVPMLQDFPDDCWVSLNNMVNNSWGKQYSYALFKAMSHMLCIGYGRQAPMGMSDVWLTMLSMIVGATCYAMFIGHATALIQSLDSSRRQYQEKYKQVEQYMSFHKLPPDTRQRIHDYYEHRYQGKMFDEESILGELSEPLREEIINFNCRKLVASMPLFANADPNFVTSMLTKLRFEVFQPGDYIIREGTIGKKMYFIQHGVVSVLTKGNKETKLADGSYFGEICLLTRGRRTASVRADTYCRLYSLSVDNFNEVLEEYPMMRRAFETVALDRLDRIGKKNSILLHKVQHDLSSGVSNYQENAIVQRIVQHDREMAHCARRAQATTPVAPAIWTPLIQAPLQAAQDLKLISASQPALPQDGAQTLRRASPHSSSGESVAALPPFPRAPGRPPGAGPGQHVTLTLPRKASSGSLPPPLSLFGPRAAPAGGPRLTAAPQREPGAKSEPVRSKLPSNL
notes: the extreme C-terminal SNL tripeptide is preserved; expected MW of the monomer 98.4 kDa; Cloned into the pCI vector; no tag is stated for HCN4; also called HCN4ΔC; modified HCN4 channels; source: HEK293-F, transiently co-transfected with TRIP8b; solubilised in detergent (LMNG-CHS), purified in complex with TRIP8b (Ni2+-NTA, Superose 6 SEC)

What was measured:
[1] = molecular target: rabbit HCN4 carrying an internal deletion (from residues 783 to 1064) (rabbit) (UniProt Q9TV66); experiment: mass photometry; Refeyn OneMP; SEC peak fractions of the co-purified HCN4 - EGFP-TRIP8b complex in LMNG-CHS, 1 μL at 200 nM added to 10 μL buffer at room temperature, 60 s recording; no cAMP
[2] = molecular target: the molecule itself; experiment: mass photometry; Refeyn OneMP; the same co-purified HCN4 - EGFP-TRIP8b complex with 2 mM cAMP added prior to mass photometry

Row | Molecule | stoichiometry N (TRIP8b per tetrameric HCN4) [1] | stoichiometry N [2]
1 | EGFP-tagged TRIP8b (1a), full-length mouse TRIP8b (splice variant 1a4) (from UniProt Q8C437 1-567) (natural protein) | 4 | –
2 | B1 | – | 4
